Test results: patent US20260248932A1, “CATIONIC AMPHIPHILIC POLYPEPTIDE FOR DELIVERING RNA AND METHOD FOR PREPARING THE SAME” (INHA UNIVERSITY RESEARCH AND BUSINESS FOUNDATION, priority 2023, published 2026)

Assay: Critical association concentration (CAC) by static light scattering
Type: physicochemical
Conditions: 10 mM HEPES buffer (pH 7.3), 0.001~4 mg/ml
Experimental: For the light scattered intensity of the polypeptide, the static light scattering was measured at 25° C. and a detection angle of 173° using Zetasizer Pro (Malvern Panalytical, Worcestershire, UK) equipped with a He—Ne laser (2=633 nm). Samples in 10 mM HEPES buffer (pH 7.3) were analyzed using a low-volume quartz cuvette (ZEN2112, Malvern Panalytic).
The critical association concentration (hereinafter referred to as CAC) of peptides measured by static light scattering was analyzed. […] Homopolypeptide (DDDDDDDD) used as the control group was well dissolved in buffer (pH 7.3), but no CAC appeared up to treatment concentration of 4 mg/mL.

Question: With “DDDDDDDD [octameric homopolypeptide of L-Asp(DET) units used as the control group]” as the sequence, how does the “critical association concentration (CAC)” value read?
Answer: > 4 mg/mL
